According to the DeepSol protein solubility set:

Experiment: soluble on expression in E. coli; label from the status in PepcDB or PDB records

Soluble on expression in E. coli, not soluble:
MGSDKIHHHHHHMTIYYNEMVDGGLVREPYAMLSDWIETMPAEIRQMKQAEAEALFRRIGITFAVYGEGGDPDRLIPFDMMPRVFLQGEWRRLERGIKQRARGLNAFLRDVYGRGEIVRAGRIPAPLVYRNAAYEKAVVGFVPPRGVFSHIVGIDIVRTGRDEFHVLEDNCRTPSGVSYMLENREIMMRMFPALFRNNRIEPVDQYPELLRRTLASVAPAKCEGEPTVVILTPGHYNSAYYEHSFLANLMGVELVEGSDLFVDGGFVYMRTTQGPKRVDVIYRRIDDQFLDPLCFRRDSMLGVPGLMDVWRSGGVSIASAPGAGVADDKAVYTFVPEMIRFYLGEEPILNNVQTWTLWKDDDYRYVMANLKDLVVKEVHGSGGYGMLIGPRATKAEIEAFAERIKADPGNYIAQPTLALSTSPTFVDEGVAPRHVDLRPFCLCGDRIELVPGGLTRVALREGSLVVNSSQGGGVKDTWVLSE
MGSDKIHHHHHHMTKDMQTFTLVPQGSLEGYIRAANAYPMLTAEEERALAERLHYQGDLEAAKHLILSHLRFVIHVARNYSGYGLPQADLIQEGNIGLMKAVRRFNPEVGVRLVSFAVHWIKAEIHEYVLRNWRIVKVATTKAQRKLFFNLRKAKTRLGWFNQDEVELVARELGVTTKDVREMESRMAAQDMTFDPTPEEDSHDGKAMSPMLYLQDKSSDFADGIEEDNWDTHAADKLTYALEGLDERSQHIIRARWLDDDNKSTLQELADQYGVSAERVRQLEKNAMKKLRAAIEA
MGSDKIHHHHHHMTKTKNEKEEFIRVGTTLYKLVNQPRLNGGYVRKRIVWNNETLRQDYGKDYLATVPKYDGFCTVPNHVDYRPVVDKFLNLYEPIEHCPQQGEFPCIQSLVRHIFGEQYELGMDYLQLLYLQPVQKLPILLLVSEERNTGKSTFLNFLKALFQNNVTFNTNEDFRSQFNSDWAGKLLIVVDEVLLNRREDSERLKNLSTTLSYKVEAKGKDRDEIAFFAKFVLCSNNEYLPVIIDAGETRYWVRKIDRLQSDDTDFLQKLKAEIPAFLHFLQHRQLSTEKESRMWFAPSLLHTEALRKIIRSNRNRLEIEIHELILDIMDSVGTDTFSFCYNDLLLLLVHSQVKVEKYQVRKVLQECWKLTPASNGLTYTTYQFNYNRECRYEPIKRVGRFYTVTRKQLDSL
MGSDKIHHHHHHMTLSITSNFDAGAIDVVSCERADAIRLRVRGDNRSEFAQWFYFRLTGARGERCVMTFENANDCAYPAGWRDYRAVASYDRVNWFRVPTSYDGQMLTIDHTPEFDSIHYAYFEPYSEERHSEFLGAVQQMPQASVVELGRTVEGRPMSLVVLGTPDEAGAAKKKVWIIARQHPGESMAEWFIEGLVKRLVGWGDWSGDPVARKLYDHATFYIVPNMNPDGSVHGNLRTNAAGANLNREWMEPDAERSPEVLVVRDAIHAIGCDLFFDIHGDEDLPYVFAAGSEMLPGFTEQQRVEQSAFIDSFKRASPDFQDEHGYPPGKYREDAFKLASKYIGHRFGCLSLTLEMPFKDNANLPDEHIGWNGARSASLGAAMLGAILEHVRAFA
MGSDKIHHHHHHMTMPYVKNTKEILEKASKERYAIGAFNFNNMEFLQAILEAAEEEKAPVIVATSEGAIKYIGKGDIETGAKLAVEMVRTYAEKLSVPVALHLDHGRDFKVIMAAIKAGYSSVMIDASHLPFEENLRETKRIVEIAHAVGISVEAELGKLKGIEDNVVEKESVLVDPEEAKVFVKETEVDFLAPAIGTSHGAFKFKGEAQLDFERLKKVKEYTQIPLVLHGASMVPQDIVKLANEYGAELSGAKGVPEDMLKKAIELGINKINTDTDLRITFVAYLRKVLSEDKSQIDPRKIFKPVFEQVKEIVKERIRIFGSSGKA
MGSDKIHHHHHHMTMTKKDALLLAAKELFGEYGYSETTFKKISERAGVALGLLTHHYGNKEKLFLAAGLDVLDRFIVYLQDACAKGNNGYESVMNFCRAYLDFSIDKNEHFMVLVRCSPYSDMKTKTDRDIMYEKFNQVPRELEYHVRRGIEDGSLKSLPAYETTTVLTCNLVGSIRTKLLTPYAPPSLYDDVLEFISRSIKA
MGSDKIHHHHHHMTNKVVNNDKISSVGIIGCGWLGSALAYQLKNQDIAVLATRSNIDNIEQLKSQGIEAEVLSLPAEQAQLNTHPIFKQQCLVIAITPQFRQGRVDYADKVQQLVESAKVGNCVEQIILLSSSAIYNGLSGDVEENSILDMSADKVSVLNQAEQAVLSFNHPGRNESRLNALNAEVGNKKAYVLRLSGLVGPKRHPGKFLLNGHMLKSPQAIVNLIHQQDAVGLIQTLLQSANCGGIFNGVSSTKVTKKQYYQAAASALQLPTPTFEEIELSEDNAPKVVSGKKTQAELAYEFVYDDLLAWLELAV
